Source: patent US12709742B2, “RNA expression modulating or editing method via regulation of Cas13 protein” (Korea Advanced Institute of Science and Technology, priority 2021, dated 2026)

Tested on: Firefly luciferase target RNA
Assay: Dual luciferase reporter assay of paCas13 fragments under blue light stimulation
Type: cell-based
Details: 488 nm blue light for 24 hours
Procedure: Specifically, to evaluate the changes in protein levels, HEK293T cells (ATCC) were co-transfected with 10 ng of a double luciferase reporter plasmid (Promega), 75 ng of each inducible Cas13 fragment expressing the plasmid, and 100 ng of a crRNA expression plasmid. 16 hours prior to transfection, the cells were placed in a 96-well plate (Corning) and allowed to grow until reaching 80% confluency. On the next day, 10 μL of Opti-MEM and 10 μL of Opti-MEM containing 0.6 μL of lipofectamine LTX and 0.26 μL of PLUS reagent and all transfected DNA plasmids were mixed, and a total of 20 μL of Opti-MEM I reducing serum medium (ThermoFisher) was added to each well. All solutions were incubated for 5 minutes before slowly added to the cells. […] The experiment was performed in triplicate. The decrease in the target RNA, the Firefly transcript, was confirmed by comparing the expression value at the protein level of the control group Renilla.
Luciferase reporter assay was performed to confirm whether the Cas13b protein was activated by light stimulation when the construct designed in Example 3 was used.
To test the light-inducible RNA targeting of paCas13, the target RNA knockdown activity of paCas13 fragments was evaluated using a dual luciferase system under the blue light stimulation for 24 hours with an LED plate emitting 488 nm of blue light (FIG. 8). […]

B1: nMagH: paCas13 fragments fused with pMag and nMagH (nMag with M135I and M165I mutations) (protein)
chain: HTLYAPGGYDIMGYLDQIGNRPNPQVELGPVDTSCALILCDLKQKDTPIVYASEAFLYMTGYSNAEVLGRNCRFLQSPDGMVKPKSTRKYVDSNTINTIRKAIDRNAEVQVEVVNFKKNGQRFVNFLTIIPVRDETGEYRYSMGFQCETE
modifications: nMagHigh1 amino acid sequence
- Target mRNA cleavage with pMag in combination with dimerization partner: Efficient target mRNA cleavage was seen
